Where no end group is shown, it is not given here. [ ]: non-standard residue; d: D form. Phe(4-CH2COOH) = N[C@@H](Cc1ccc(CC(=O)O)cc1)C(=O)O; GABA = NCCCC(=O)O
What was measured:
Assay in all cases: cell-based or functional assay
[1] = target: envelope gp120 of HIV-1/Ba-L (R5-tropic strain), on virus (HIV-1 strain Ba-L)
[2] = target: envelope gp120 of HIV-1-LAI (X4-tropic strain), on virus (HIV-1 strain LAI, UniProt P03377 33-516, limits assumed)
[3] = target: envelope gp120 of HIV-1 92UG029 (clade A, X4), on virus (HIV-1 strain 92UG029)
[4] = target: envelope gp120 of HIV-1 SF162 (clade B, R5), on virus (HIV-1 strain SF162, UniProt P19550 32-502)
[5] = target: envelope gp120 of HIV-1 92HT599 (clade B, X4), on virus (HIV-1 strain 92HT599)
[6] = target: envelope gp120 of HIV-1 98IN017 (clade C, X4), on virus (HIV-1 strain 98IN017)
[7] = target: envelope gp120 of HIV-1 92US723 (clade B, R5/X4), on virus (HIV-1 strain 92US723)
[8] = target: envelope gp120 of HIV-1 96USHIPS4 (clade B, R5/X4), on virus (HIV-1 strain 96USHIPS4)

SYDYSYDYSYDYS (N-terminal gamma-aminobutyric acid (NH2-(CH2)3-CO-)) [P3Y (H-gamma-Abu-S-Y-D-Y-S-Y-D-Y-S-Y-D-Y-S-OH)]
> 500 nM: ED50, HIV-1 replication in PBMC [1] | ED70, HIV-1 replication in PBMC [1] | ED90, HIV-1 replication in PBMC [1] | ED50, HIV-1 replication in PBMC [2] | ED70, HIV-1 replication in PBMC [2] | ED90, HIV-1 replication in PBMC [2]

EEEEEEEEEEEEE (N-terminal gamma-aminobutyric acid (NH2-(CH2)3-CO-)) [E13 (H-gamma-Abu-(Glu)13-OH)]
> 500 nM: ED50, HIV-1 replication in PBMC [1] | ED70, HIV-1 replication in PBMC [1] | ED90, HIV-1 replication in PBMC [1] | ED50, HIV-1 replication in PBMC [2] | ED70, HIV-1 replication in PBMC [2] | ED90, HIV-1 replication in PBMC [2]

B1: P3pF (H-gamma-Abu-S-pF-D-pF-S-pF-D-pF-S-pF-D-pF-S-OH) (peptide)
peptide: [GABA]S[Phe(4-CH2COOH)]D[Phe(4-CH2COOH)]S[Phe(4-CH2COOH)]D[Phe(4-CH2COOH)]S[Phe(4-CH2COOH)]D[Phe(4-CH2COOH)]S-OH
modifications: N-terminus assumed
SMILES: NCCCC(=O)N[C@@H](CO)C(=O)N[C@@H](Cc1ccc(CC(=O)O)cc1)C(=O)N[C@@H](CC(=O)O)C(=O)N[C@@H](Cc1ccc(CC(=O)O)cc1)C(=O)N[C@@H](CO)C(=O)N[C@@H](Cc1ccc(CC(=O)O)cc1)C(=O)N[C@@H](CC(=O)O)C(=O)N[C@@H](Cc1ccc(CC(=O)O)cc1)C(=O)N[C@@H](CO)C(=O)N[C@@H](Cc1ccc(CC(=O)O)cc1)C(=O)N[C@@H](CC(=O)O)C(=O)N[C@@H](Cc1ccc(CC(=O)O)cc1)C(=O)N[C@@H](CO)C(=O)O
> 500 nM: ED50, HIV-1 replication in PBMC [1] | ED70, HIV-1 replication in PBMC [1] | ED90, HIV-1 replication in PBMC [1] | ED50, HIV-1 replication in PBMC [2] | ED70, HIV-1 replication in PBMC [2] | ED90, HIV-1 replication in PBMC [2]

B2: P3YSO3 (H-gamma-Abu-S-YSO3-D-YSO3-S-YSO3-D-YSO3-S-YSO3-D-YSO3-S-OH) (peptide)
peptide: SXDXSXDXSXDXS
modifications: N-terminal gamma-aminobutyric acid (NH2-(CH2)3-CO-); sulfotyrosine (YSO3) at the six X positions of S-X-D-X-S-X-D-X-S-X-D-X-S
> 500 nM: ED50, HIV-1 replication in PBMC [3] | ED70, HIV-1 replication in PBMC [3] | ED90, HIV-1 replication in PBMC [3] | ED50, HIV-1 replication in PBMC [4] | ED70, HIV-1 replication in PBMC [4] | ED90, HIV-1 replication in PBMC [4] | ED50, HIV-1 replication in PBMC [5] | ED70, HIV-1 replication in PBMC [5] | ED90, HIV-1 replication in PBMC [5] | ED50, HIV-1 replication in PBMC [6] | ED70, HIV-1 replication in PBMC [6] | ED90, HIV-1 replication in PBMC [6] | ED50, HIV-1 replication in PBMC [7] | ED70, HIV-1 replication in PBMC [7] | ED90, HIV-1 replication in PBMC [7] | ED50, HIV-1 replication in PBMC [8] | ED70, HIV-1 replication in PBMC [8] | ED90, HIV-1 replication in PBMC [8]
